# Target: human TRIM28 N-terminal RBCC domain (human)
# Assay: SEC-MALS + other: SEC-SAXS + AUC
substance,measurement,value
human TRIM28 N-terminal RBCC domain (domain or fragment),stoichiometry N,3

# — article PMC7380489
